Measured values as given in article doi:10.1101/2021.12.23.474050.

Target: wild-type (WT) RBD of the SARS-CoV-2 spike protein (SARS-CoV-2) (UniProt P0DTC2)
Assay: ITC

CC12.1 ScFv
Kd: 0.0239 µM
